Measurements taken from patent publication US8030025B2, “Antibodies directed to angiopoietin-1 and angiopoietin-2 and uses thereof” (Amgen Inc., dated 2011).
Where a chain is given by its changes, count along the chain named.

B1: H5L7 (antibody, V domains shown)
VH: EVQLVQSGGGVVQPGRSLRLSCAASGFTFSSYGMHWVRQAPGKGLEWVSYISSSGSTIYYADSVKGRFTISRDNAKNSLYLQMNSLRAEDTAVYYCARDLLDYDIWTGYGYWGQGTLVTVSS
VL: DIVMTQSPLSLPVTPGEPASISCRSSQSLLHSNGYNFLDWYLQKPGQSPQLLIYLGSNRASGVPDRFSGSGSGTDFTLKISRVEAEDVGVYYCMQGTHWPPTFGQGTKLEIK
B2: H6L8 (antibody, V domains shown)
VH: B1 VH with W106Y
VL: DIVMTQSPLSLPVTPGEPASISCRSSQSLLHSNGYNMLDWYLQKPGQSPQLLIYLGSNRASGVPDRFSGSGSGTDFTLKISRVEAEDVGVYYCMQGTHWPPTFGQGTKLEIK
B3: H4L2 (antibody, V domains shown)
VH: B1 VH with I105L, W106L
VL: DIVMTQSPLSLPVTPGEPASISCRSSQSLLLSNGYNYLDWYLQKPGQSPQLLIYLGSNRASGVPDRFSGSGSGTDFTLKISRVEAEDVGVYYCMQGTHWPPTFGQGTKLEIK
B4: H4L12 (antibody, V domains shown)
VH: B1 VH with I105L, W106L
VL: not shown
B5: H5L8 (antibody, V domains shown)
VH: B1 VH
VL: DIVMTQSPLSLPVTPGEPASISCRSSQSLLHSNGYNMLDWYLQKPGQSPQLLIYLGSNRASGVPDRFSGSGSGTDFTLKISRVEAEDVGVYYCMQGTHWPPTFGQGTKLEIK
B6: H2L7 (antibody, V domains shown)
VH: B1 VH with Y59E, W106L
VL: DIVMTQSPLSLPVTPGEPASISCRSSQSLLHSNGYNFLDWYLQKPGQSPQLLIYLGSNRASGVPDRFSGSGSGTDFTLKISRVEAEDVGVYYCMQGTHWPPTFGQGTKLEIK
B7: H5L9 (antibody, V domains shown)
VH: B1 VH
VL: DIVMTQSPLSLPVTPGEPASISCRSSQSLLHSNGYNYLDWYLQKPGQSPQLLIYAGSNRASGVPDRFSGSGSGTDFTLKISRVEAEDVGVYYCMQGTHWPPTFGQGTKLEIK
B8: H5L4 (antibody, V domains shown)
VH: B1 VH
VL: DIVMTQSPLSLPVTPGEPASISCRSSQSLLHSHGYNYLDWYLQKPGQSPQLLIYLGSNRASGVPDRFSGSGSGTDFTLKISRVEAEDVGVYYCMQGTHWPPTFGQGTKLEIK
B9: H4L4 (antibody, V domains shown)
VH: B1 VH with I105L, W106L
VL: not shown
B10: H4L13 (antibody, V domains shown)
VH: B1 VH with I105L, W106L
VL: not shown
B11: H3L7 (antibody, V domains shown)
VH: B1 VH with Y59Q, W106L
VL: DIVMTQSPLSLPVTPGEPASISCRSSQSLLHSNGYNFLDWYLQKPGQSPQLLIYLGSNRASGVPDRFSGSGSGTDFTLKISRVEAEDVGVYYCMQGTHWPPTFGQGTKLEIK
B12: H4L6 (antibody, V domains shown)
VH: B1 VH with I105L, W106L
VL: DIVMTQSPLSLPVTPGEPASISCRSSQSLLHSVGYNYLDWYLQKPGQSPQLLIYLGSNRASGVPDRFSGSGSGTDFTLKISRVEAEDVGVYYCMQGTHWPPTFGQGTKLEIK
B13: H5L6 (antibody, V domains shown)
VH: B1 VH
VL: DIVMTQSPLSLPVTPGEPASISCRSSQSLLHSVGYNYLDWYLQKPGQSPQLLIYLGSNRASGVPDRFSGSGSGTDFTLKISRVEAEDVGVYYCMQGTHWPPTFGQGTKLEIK
B14: H4L7 (antibody, V domains shown)
VH: B1 VH with I105L, W106L
VL: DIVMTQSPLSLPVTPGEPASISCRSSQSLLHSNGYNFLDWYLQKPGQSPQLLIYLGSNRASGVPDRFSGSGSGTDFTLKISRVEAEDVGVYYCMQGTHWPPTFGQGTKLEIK
B15: H11L7 (antibody, V domains shown)
VH: B1 VH with W106L, Y111M
VL: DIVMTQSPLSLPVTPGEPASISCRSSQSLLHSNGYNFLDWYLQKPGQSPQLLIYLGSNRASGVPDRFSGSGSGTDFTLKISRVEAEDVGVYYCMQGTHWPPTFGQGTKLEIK
B16: H6L7 (antibody, V domains shown)
VH: B1 VH with W106Y
VL: not shown
B17: H10L7 (antibody, V domains shown)
VH: B1 VH with W106L, Y111L
VL: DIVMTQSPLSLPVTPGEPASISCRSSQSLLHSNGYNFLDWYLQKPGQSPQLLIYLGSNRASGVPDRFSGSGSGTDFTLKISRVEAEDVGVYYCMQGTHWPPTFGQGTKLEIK
B18: H4L11 (antibody, V domains shown)
VH: B1 VH with I105L, W106L
VL: not shown
B19: H5L11 (antibody, V domains shown)
VH: B1 VH
VL: not shown
B20: H6L6 (antibody, V domains shown)
VH: B1 VH with W106Y
VL: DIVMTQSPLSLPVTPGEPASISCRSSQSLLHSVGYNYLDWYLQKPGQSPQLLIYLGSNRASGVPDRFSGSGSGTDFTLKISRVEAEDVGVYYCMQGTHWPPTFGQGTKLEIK
B21: H5L12 (antibody, V domains shown)
VH: B1 VH
VL: not shown
B22: H5L1 (antibody, V domains shown)
VH: B1 VH
VL: not shown
B23: H4L11 (IgG2) (antibody, V domains shown)
VH: B1 VH with I105L, W106L
VL: not shown
B24: 536 LC1 (antibody, V domains shown)
VH: B1 VH with W106L
VL: not shown
B25: H6L7 (IgG2) (antibody, V domains shown)
VH: B1 VH with W106Y
VL: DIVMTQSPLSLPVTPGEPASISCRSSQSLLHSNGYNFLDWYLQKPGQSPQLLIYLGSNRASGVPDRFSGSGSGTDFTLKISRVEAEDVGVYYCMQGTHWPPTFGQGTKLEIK
B26: H4L4 (IgG2) (antibody, V domains shown)
VH: B1 VH with I105L, W106L
VL: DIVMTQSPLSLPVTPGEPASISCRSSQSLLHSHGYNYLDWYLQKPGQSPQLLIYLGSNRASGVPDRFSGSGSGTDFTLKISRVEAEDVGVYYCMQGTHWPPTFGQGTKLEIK

molecular target: biotinylated human angiopoietin 1 (human, UniProt Q15389, biotin); assay: HTRF neutralization; biotin-hAng1 vs huTie-2-Fc-APC

Row | Binder | IC50 [nM] | IC90 [nM]
1 | B1 | 0.07 | 0.42
2 | B2 | 0.57 | 7.7
3 | B3 | 0.66 | 6.8
4 | B4 | 0.63 | 8.7
5 | B5 | 0.37 | 3.6
6 | B6 | 0.33 | 3.6
7 | B7 | 18 | 181
8 | B8 | 0.6 | 11
9 | B9 | 0.87 | 8.2
10 | B10 | 0.15 | 1.6
11 | B11 | 0.58 | 7.1
12 | B12 | 0.74 | 15
13 | B13 | 0.32 | 3.6
14 | B14 | 0.23 | 2.8
15 | B15 | 0.15 | 1.2
16 | B16 | 0.06 | 0.49
17 | B17 | 0.15 | 2.2
18 | B18 | 7.3 | 107
19 | B19 | 0.97 | 18
20 | B20 | 0.66 | 10

molecular target: biotinylated human angiopoietin 2 (human, UniProt O15123, biotin); assay: HTRF neutralization; biotin-hAng2 vs huTie-2-Fc-APC

Row | Binder | IC50 [nM] | IC90 [nM]
21 | B1 | 0.07 | 0.23
22 | B2 | 0.05 | 0.19
23 | B3 | 0.06 | 0.19
24 | B4 | 0.06 | 0.21
25 | B5 | 0.07 | 0.21
26 | B6 | 0.06 | 0.2
27 | B7 | 0.19 | 1.57
28 | B8 | 0.07 | 0.21
29 | B9 | 0.06 | 0.16
30 | B10 | 0.06 | 0.19
31 | B11 | 0.06 | 0.23
32 | B12 | 0.06 | 0.2
33 | B13 | 0.07 | 0.23
34 | B14 | 0.06 | 0.22
35 | B15 | 0.06 | 0.2
36 | B16 | 0.06 | 0.19
37 | B17 | 0.06 | 0.19
38 | B21 | 0.07 | –
39 | B18 | 0.05 | 0.17
40 | B19 | 0.08 | 0.25
41 | B22 | 0.06 | –
42 | B20 | 0.06 | 0.2

molecular target: Cyno Ang2 (cynomolgus monkey, UniProt A0A2K5VNX6); assay: neutralization ELISA; coated angiopoietin vs Tie2-Fc

Row | Binder | IC50 [nM]
43 | B23 | 0.16
44 | B24 | 0.19
45 | B25 | 0.19
46 | B26 | 0.24

molecular target: Human Ang2 (human, UniProt O15123); assay: as above

Row | Binder | IC50 [nM]
47 | B23 | 0.21
48 | B24 | 0.27
49 | B25 | 0.22
50 | B26 | 0.22

molecular target: Murine Ang2 (mouse, UniProt O35608); assay: as above

Row | Binder | IC50 [nM]
51 | B23 | 0.12
52 | B24 | 0.14
53 | B25 | 0.13
54 | B26 | 0.15

molecular target: Rabbit Ang2 (rabbit, UniProt G1T9B3); assay: as above

Row | Binder | IC50 [nM]
55 | B23 | 0.12
56 | B24 | 0.2
57 | B25 | 0.15
58 | B26 | 0.15

molecular target: Murine Ang1 (mouse, UniProt O08538); assay: as above

Row | Binder | IC50 [nM]
59 | B23 | 7.7
60 | B24 | 305
61 | B25 | 0.12
62 | B26 | 3.3

molecular target: Rabbit Ang1 (rabbit, UniProt G1SK98); assay: as above

Row | Binder | IC50 [nM]
63 | B23 | 16
64 | B24 | 502
65 | B25 | 0.18
66 | B26 | 2.8

molecular target: Human Ang1 (human, UniProt Q15389); assay: as above

Row | Binder | IC50 [nM]
67 | B23 | 17
68 | B24 | 515
69 | B25 | 0.12
70 | B26 | 3.2

molecular target: Cyno Ang1 (cynomolgus monkey, UniProt A0A2K5VW43); assay: as above

Row | Binder | IC50 [nM]
71 | B24 | 531
72 | B25 | 0.19
73 | B26 | 4
